Measured values published in the supplement of paper PMC10126150.
± gives the standard deviation of the averaged measurements.

Test system: ATP
Test: switch fluorescence ratio, 500 uM ATP over buffer (Cy3 cluster intensity, sum of 5 cycles each) (fold (ratio)); higher = stronger signal-on switching upon ATP binding; sequences stand for … in TCGTCGGCAGCGTCAGATGTGTATAAGAGACAGTTTTTTTTTTTTTTTTTTTTTTTTT…TC
Conditions: aptamer strand: ATP DNA aptamer (quencher-CACCTGGGGGAGTATTGCGGAGGAAGG + anchor), 100 nM annealed; ATP concentration: 500 uM
In short: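 The fluorescence ratio divides summed target-cycle Cy3 intensity by summed buffer-cycle Cy3 intensity for each cluster and is averaged per switch-domain sequence. Cy3-labelled switching-strand clusters on a modified Illumina MiSeq flow-cell were annealed to 100 nM quencher-labelled ATP aptamer, then imaged in selection buffer and again after 15 min with 500 uM ATP at 22 °C. Five such cycles were run, with NaOH stripping and re-annealing between them, and clusters outside 100-1000 RFU were excluded.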
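Note: ATP exposure 15 min at 22 °C before imaging.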

Sequence	switch fluorescence ratio
CCGAAATTTT	1.05 ± 0.016
CCGAACACCT	1.219 ± 0.0037
CCGAAGGGGC	1.52 ± 0.083
CCGAATATGA	1.55 ± 0.079
CCGACATGGT	1.27 ± 0.11
CCGACGTAGG	2.494 ± 0.017
CCGAGGGCAG	2.75 ± 0.36
CCGAGTAGGG	1.074 ± 0.0031
CCGAGTGGAG	1.083 ± 0.0024
CCGAGTTATA	2.15 ± 0.013
CCGATCGTGG	2.86 ± 1.9
CCGATGTATA	1.35 ± 0.053
CCGATTCGGG	1.012 ± 0.0064
CCGATTGGTC	1.117 ± 0.0062
CCGATTTATA	1.013 ± 0.0052
CCGCATTTTT	2.19 ± 0.82
CCGCCCTATT	1.4 ± 0.024
CCGCGCACCG	1.73 ± 0.053
CCGCGGATGG	1.25 ± 0.15
CCGCGGCGGG	1.04 ± 0.028
CCGCGTCTGT	1.24 ± 0.032
CCGCTGGGCT	1.83 ± 0.056

Sequence	switch fluorescence ratio
CCGCTTTTAT	2.69 ± 0.48
CCGGAAACCA	1.01 ± 0.021
CCGGAAATTT	1.01 ± 0.019
CCGGAAGGGC	1.84 ± 0.69
CCGGAGTGGA	2.56 ± 1.3
CCGGATTATG	1.05 ± 0.016
CCGGCCCACA	1.266 ± 0.0065
CCGGCCCCGG	1.68 ± 0.028
CCGGCGCGTG	1.06 ± 0.1
CCGGCGGGAG	1.099 ± 0.0064
CCGGCTGGGT	0.9584 ± 0.0069
CCGGGAACGC	1.29 ± 0.024
CCGGGAGTAC	2.14 ± 0.55
CCGGGAGTGT	1.12 ± 0.013
CCGGGCCTGC	1.11 ± 0.014
CCGGGCGATG	1.6 ± 0.1
CCGGGCGGAT	1.02 ± 0.0099
CCGGGGAGGT	1.06 ± 0.1
CCGGGGAGTC	1.04 ± 0.044
CCGGGGGGGT	1.09 ± 0.077
CCGGGGGTCA	1.01 ± 0.039
CCGGGGTGGG	0.9964 ± 0.0055

Sequence	switch fluorescence ratio
CCGGGGTGTT	1.22 ± 0.3
CCGGGTAAAA	1.03 ± 0.057
CCGGGTAATG	1.27 ± 0.028
CCGGGTCGGG	1.006 ± 0.0049
CCGGGTCGGT	0.9554 ± 0.0036
CCGGGTGACC	1.143 ± 0.0068
CCGGGTGTGG	1.03 ± 0.028
CCGGGTTTCG	0.996 ± 0.035
CCGGTAAGGA	0.994 ± 0.015
CCGGTATTGA	0.994 ± 0.017
CCGGTCCCTA	1 ± 0.011
CCGGTGCGTG	1.13 ± 0.14
CCGGTGGGGA	1.12 ± 0.064
CCGGTGTCTG	1.05 ± 0.09
CCGGTTATGA	1.04 ± 0.02
CCGGTTGCAT	4.54 ± 1.9
CCGGTTTTTA	0.996 ± 0.01
CCGTAAGCAG	1.96 ± 0.034
CCGTAATTGA	2.75 ± 0.16
CCGTACGTTT	1.24 ± 0.024
CCGTATAATG	0.98 ± 0.034
CCGTATGTGC	1.751 ± 0.0087

Sequence	switch fluorescence ratio
CCGTCAAGAG	4.35 ± 0.16
CCGTGAGGTG	1.135 ± 0.01
CCGTGAGTTT	1.07 ± 0.04
CCGTGCAGTT	2.12 ± 0.82
CCGTGGGTTT	1.059 ± 0.0031
CCGTGTTGCG	1.01 ± 0.022
CCGTGTTTTT	0.988 ± 0.032
CCGTTAGCGG	1.1074 ± 0.00044
CCGTTATCTC	2.81 ± 1
CCGTTATTCT	1.35 ± 0.27
CCGTTGTGCC	1.022 ± 0.0018
CCGTTTCGTG	0.9948 ± 0.0046
CCGTTTGCAG	1.13 ± 0.15
CCGTTTGGCA	1.15 ± 0.022
CCGTTTTTTG	1 ± 0.032
CCTAAGAATG	1.043 ± 0.0035
CCTACATTG	1 ± 0.02
CCTAGAGAGG	1.031 ± 0.006
CCTAGGGGAA	1.02 ± 0.022
